The target in experiment [1] is T1, PDGFR alpha (Homo sapiens, UniProt P16234). Briefly: optical biosensor binding to immobilized His-tagged PDGFR alpha. Also on record: cDNA encoding aminoacids 1-834 of human PDGFR alpha; made in house. As for the experimental part: A detailed characterization of rHumaab interaction with human PDGFR alpha was performed on an optical biosensor, using as a molecular bait a homemade truncated conformer of this receptor containing the complete extracellular and transmembrane regions joined to a poly-histidine tail (HIS tag) replacing part of the intracellular domain, and serving both as an anchor to the biosensor surface and as a spacer. Preservation of proper folding of the immobilized receptor into a naïve-like conformation was verified by monitoring the interaction with its natural binding partner (PDGF-BB) and with two mouse monoclonal antibodies specific for conformational PDGFR alpha epitopes (FIG. 6a). Using this approach, both kinetics and equilibrium parameters of the interaction between PDGF-BB, each rHumaab and PDGFR alpha were determined. […] Additionally, the analysis of association and dissociation rate constants for soluble ligands binding to PDGFR alpha, further defined the mechanistic properties of the macromolecular recognition process. […]
cDNA encoding aminoacids 1-834 of human PDGFR alpha was inserted in the pcDNA V5 HIS A vector (Invitrogen), in order to fuse the COOH— terminal of the protein with a 6× histidine tag. […] Presence of a single His-tagged PDGFR alpha product in eluted fractions was evaluated by immunoblotting with specific anti-PDGFR alpha (R&D Biosystems) and anti-histidine (Sigma-Aldrich) monoclonal antibodies. […]
[…] For binding assays, monophasic time courses were always reported upon addition of soluble rHumaab (the validity of the monophasic model in fitting each time course was assessed according to a standard F-test procedure, with the biphasic model being statistically nonsignificant at 95% confidence) (Bevington P R and Robinson D K. McGraw-Hill Book Company, New York. 1992).
Target sequence in this assay (P16234 24-834): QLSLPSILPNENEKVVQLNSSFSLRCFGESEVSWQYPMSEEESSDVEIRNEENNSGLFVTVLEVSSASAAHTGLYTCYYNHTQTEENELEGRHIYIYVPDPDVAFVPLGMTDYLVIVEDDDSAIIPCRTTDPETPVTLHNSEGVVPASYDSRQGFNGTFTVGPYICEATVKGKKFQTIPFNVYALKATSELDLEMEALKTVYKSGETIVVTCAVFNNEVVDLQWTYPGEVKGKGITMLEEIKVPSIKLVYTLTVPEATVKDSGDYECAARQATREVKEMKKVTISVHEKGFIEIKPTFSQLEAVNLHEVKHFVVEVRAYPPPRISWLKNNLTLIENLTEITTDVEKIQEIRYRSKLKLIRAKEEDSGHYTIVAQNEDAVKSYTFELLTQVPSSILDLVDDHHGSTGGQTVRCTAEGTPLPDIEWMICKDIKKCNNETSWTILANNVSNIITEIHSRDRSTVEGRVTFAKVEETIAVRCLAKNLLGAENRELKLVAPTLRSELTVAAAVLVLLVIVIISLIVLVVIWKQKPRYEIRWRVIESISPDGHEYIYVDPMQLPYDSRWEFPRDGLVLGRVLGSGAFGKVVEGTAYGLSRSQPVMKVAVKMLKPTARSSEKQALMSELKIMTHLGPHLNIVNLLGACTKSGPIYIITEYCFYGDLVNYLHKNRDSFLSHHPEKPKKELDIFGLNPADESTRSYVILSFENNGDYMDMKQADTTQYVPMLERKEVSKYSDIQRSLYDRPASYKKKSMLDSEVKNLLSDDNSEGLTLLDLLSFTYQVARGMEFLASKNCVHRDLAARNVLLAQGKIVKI

Experiment [2] relates to normal human fibroblasts. Briefly: type I collagen gene transcription in normal human fibroblasts (real-time PCR). In kind it is cell-based. The conditions noted are these: time course. The text has this:
(§1) FIG. 5 Characterization of recombinant human monoclonal auto-antibodies (rHumaab). IgG were affinity-purified from serum-free supernatants of CHO cells stably transfected with each of the four rHumaab constructs and used (10 micrograms/ml) in four independent assays. Each result is representative of three experiments performed under the same conditions. (a) Vk13B8, Vk16F4 and Vlambda16F4, but not Vlambda13B8 rHumaab, immunoprecipitated PDGFR alpha from normal human fibroblast extracts. A mouse monoclonal anti-PDGFR alpha antibody was used as positive control. Immunoprecipitated PDGFR alpha was visualized by immunoblotting with rabbit anti-PDGFR alpha antibody-HRP. (b-c) Vk16F4 and Vlambda16F4, but not Vk13B8 and Vlambda13B8 rHumaab, induced (b) ROS production and (c) increased ERK phosphorylation (p-ERK) in normal human fibroblasts after 15 minutes incubation. […] Intracellular ROS production was measured by DCFH-DA fluorescence. […] Type I A1 and A2 collagen gene expression was measured by quantitative real-time PCR in RNA extracted from fibroblasts at baseline and after stimulation with the indicated reagents. […] Mouse collagen gene expression was measured by quantitative real-time PCR in RNA extracted from F alpha and F−/− fibroblasts at baseline and after 1 hour stimulation with Vk16F4 rHumaab or human PDGF-BB. […]
(In general: Quantitative PCR measures a nucleic acid by following its amplification.)

Experiment [3] relates to normal human fibroblasts. Briefly: ERK phosphorylation (p-ERK immunoblot) in normal human fibroblasts. The class given is cell-based. Particulars: 10 micrograms/ml, 15 minutes incubation.
Description: as §1

The target in experiment [4] is T1, PDGFR alpha. The experiment in a line: immunoprecipitation and immunoblotting of PDGFR alpha from human fibroblast extracts. Particulars: normal human fibroblast extracts; 10 micrograms/ml. Set-up: 100 micrograms of total protein from human fibroblast extract; endogenous in cells; host or cells: normal human (skin) fibroblasts, total cell extract. The class given is binding. As for the experimental part:
Immunoprecipitating antibodies were individually incubated for 4 hours at 4° C. with an aliquot of 100 micrograms of total protein from human fibroblast extract. The reaction mixture was adjusted to a final volume of 500 microliters with assay buffer (PBS, 1% Nonidet P-40, 0.5% sodium deoxycholate, 1 mM PMSF). Rabbit anti-PDGFR alpha antibody and rabbit IgG (Santa Cruz), IgG purified from EBV-transformed B cell culture supernatants and rHumaab were used at 10 micrograms/ml, total IgG purified from serum of SSc patients and healthy subjects at 200 micrograms/ml. Then, 20 microliters agarose-Protein A/G (Santa Cruz) were added to the antibody-cell extract mixture and incubated overnight under rotation at 4° C. After centrifugation and extensive washing, immunoprecipitates were suspended in 20 microliters of loading buffer (150 mM Tris-HCl, pH 6.8/6% SDS/0.3% bromophenol blue/30% glycerol) and heated to 100° C. for 10 minutes prior to immunoblotting with a commercial rabbit anti-PDGFR alpha antibody (Santa Cruz).
Target sequence in this assay (P16234 24-1089): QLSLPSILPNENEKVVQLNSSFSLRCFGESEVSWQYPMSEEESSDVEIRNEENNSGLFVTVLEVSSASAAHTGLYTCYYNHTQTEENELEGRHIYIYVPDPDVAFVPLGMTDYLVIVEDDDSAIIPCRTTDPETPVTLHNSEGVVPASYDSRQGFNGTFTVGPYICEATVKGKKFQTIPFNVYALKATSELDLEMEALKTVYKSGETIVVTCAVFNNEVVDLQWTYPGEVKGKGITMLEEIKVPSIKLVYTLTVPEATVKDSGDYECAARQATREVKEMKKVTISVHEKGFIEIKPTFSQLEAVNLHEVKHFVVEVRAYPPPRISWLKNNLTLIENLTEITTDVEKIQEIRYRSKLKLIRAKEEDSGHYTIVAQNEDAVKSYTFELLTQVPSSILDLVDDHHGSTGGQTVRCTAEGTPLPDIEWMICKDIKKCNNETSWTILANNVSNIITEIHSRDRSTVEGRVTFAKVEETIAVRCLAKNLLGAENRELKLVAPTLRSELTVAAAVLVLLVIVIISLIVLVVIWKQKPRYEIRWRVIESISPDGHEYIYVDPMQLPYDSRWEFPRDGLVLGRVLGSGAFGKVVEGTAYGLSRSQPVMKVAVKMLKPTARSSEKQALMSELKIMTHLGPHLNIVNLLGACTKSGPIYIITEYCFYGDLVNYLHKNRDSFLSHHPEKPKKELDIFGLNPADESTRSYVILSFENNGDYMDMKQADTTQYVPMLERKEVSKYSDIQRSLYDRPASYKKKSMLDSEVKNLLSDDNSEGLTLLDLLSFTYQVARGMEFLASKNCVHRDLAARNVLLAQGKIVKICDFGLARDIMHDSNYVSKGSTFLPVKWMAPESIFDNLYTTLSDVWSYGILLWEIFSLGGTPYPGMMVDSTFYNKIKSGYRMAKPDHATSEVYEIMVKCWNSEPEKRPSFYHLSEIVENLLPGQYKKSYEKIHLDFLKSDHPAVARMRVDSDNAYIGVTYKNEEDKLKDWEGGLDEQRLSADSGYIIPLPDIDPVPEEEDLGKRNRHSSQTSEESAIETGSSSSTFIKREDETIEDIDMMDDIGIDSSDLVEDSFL

For experiment [5], the system named is normal human fibroblasts. The experiment in a line: ROS production in normal human fibroblasts (DCFH-DA fluorescence). In kind it is cell-based. The conditions noted are these: 10 micrograms/ml, 15 minutes incubation.
Description: as §1

Experiment [6] has as its target T1, PDGFR alpha. Briefly: competitive binding on optical biosensor. Also on record: cDNA encoding aminoacids 1-834 of human PDGFR alpha; made in house. The conditions noted are these: immobilized His-tagged PDGFR alpha saturated with molar excess of PDGF-BB. How it is done: To draw a map of the PDGFR alpha epitopes recognized by the rHumaab, competitive binding experiments were performed on the optical biosensor platform, where the surface of immobilized HIS-tagged PDGFR alpha was saturated with PDGF-BB prior to the addition of each rHumaab.
Binding assays were performed on a IAsys plus biosensor. The carboxylate surface was equilibrated with PBS buffer, and activated by addition of an equimolar mixture of N-hydroxysuccinimide and N-ethyl-N-(dimethylaminopropyl) carbodiimide hydrochloride following the standard procedure (Davies, R J et al. Academic Press: San Diego, 1994).
Next, His-tagged PDGFR alpha (200 micrograms/mL) was incubated over the surface for 20 min, and free carboxylic sites on the sensor surface were deactivated by injection of 1M ethanolamine, pH 8.5. Finally, the surface was re-equilibrated with PBS. rHumaab and PDGF-BB were added at different concentrations, and association kinetics were followed up to equilibrium, whereas dissociation steps and surface regeneration were performed by addition of fresh buffer, each time assessing the baseline recovery prior to any new addition of ligand. Kinetic and equilibrium parameters were derived from global fit of raw data both to mono- and bi-exponential models (Cuccioloni M et al. J Lipid Res 2011; 52 (5): 897-907).
Target sequence in this assay (P16234 24-834): as the sequence (P16234 24-834) above

On to “PDGF-BB: human PDGF-BB, natural binding partner (physiological ligand) of PDGFR alpha [reference compound]”, for which the “kass (association rate constant)” value in the experiment with PDGFR alpha [1] stood at 3e+07 M⁻¹ s⁻¹. In addition, in the experiment with normal human fibroblasts [2], the “duration of collagen gene stimulation” value is “up to 6 hours”.

B1: Vlambda16F4: recombinant human monoclonal IgG1, VH PAM paired with Vlambda16F4 VL (SEQ ID No. 7) (antibody, V domains shown)
VH: GLVKPLETLSLTCSVSGGSVSDGSYFWNWIRQPPGKGLEWIGYAYSRGTTNYSPSLKGRITISVDKSKNQISLKLTSVTPADTAVYYCARDSFEIWGQGTMVTV
VL: QSALTQPASVSGSPGQSITISCTGTSSDVGGYNYVSWYQHHPGKAPKLMIYEVSHRPSGVSNRFSGSKSGNTASLTISGLQAEDEADYYCSSYTSSSHVVFGGGTKLTVL
Take B1: the “kdiss (dissociation rate constant)” value in the experiment with PDGFR alpha [1] worked out at 0.003 s⁻¹. Also, the “ERK phosphorylation (p-ERK)” value in the experiment on normal human fibroblasts [3] was “increased”. Also, the “immunoprecipitation of PDGFR alpha” value with PDGFR alpha [4] was “specifically bound”. The ROS production entry in the experiment on normal human fibroblasts [5] is listed as “induced”.

B2: Vk13B8: recombinant human monoclonal IgG1, VH PAM (SEQ ID No. 3) paired with Vk13B8 VL (SEQ ID No. 4); non-agonistic anti-PDGFR alpha (antibody, listed as Homo sapiens, V domains shown)
VH: B1 VH
VL: DIQMTQSPSSLSASVGDRVTITCRASQGISNYLAWFQQKPGKAPKSLIYAASSLQSGVPSKFSGSGSGTDFTLTISSLQPEDFATYYCQQYNSFPYTFGQGTKLEIK
Consider B2, for which, in the experiment with PDGFR alpha [1], the “kdiss (dissociation rate constant)” value worked out at 0.035 s⁻¹. In addition, the “binding to PDGFR alpha pre-saturated with PDGF-BB” value in the experiment with PDGFR alpha [6] is “bound”. In addition, the “immunoprecipitation of PDGFR alpha” value with PDGFR alpha [4] is on record as “specifically bound”.

Source of the values: patent publication US9150634B2, “Epitopes of the human PDGF receptor able to bind human auto-antibodies, antibodies and uses thereof” (priority 2010, dated 2015).
